Patent US20220249369

Target: T1, OmpTs, DABCYL-RRSRRV-K(5-FAM)
T1 chain: RRSRRVK

B1: Outer Membrane Protease T (protein)
chain: STETLSFTPDNINADISLGTLSGKTKERVYLAEEGGRKVSQLDWKFNNAAIIKGAINWDLMPQISIGAAGWTTLGSRGGNMVDQDWMDSSNPGTWTDESRHPDTQLNYANEFDLNIKGWLLNEPNYRLGLMAGYQESRYSFTARGGSYIYSSEEGFRDDIGSFPNGERAIGYKQRFKMPYIGLTGSYRYEDFELGGTFKYSGWVESSDNDEHYDPGKRITYRSKVKDQNYYSVAVNAGYYVTPNAKVYVEGAWNRVTNKKGNTSLYDHNNNTSDYSKNGAGIENYNFITTAGLKYTF
cleavage of quenched fluorescent substrate: a substrate (RRSRRVK (SEQ ID NO:9)) specific for the E. coli surface protease OmpT
